In publication PMC2647307:

The substances below were run on C.PvuII (assay: competition). Conditions: scale: % loss of shifted WT band at 10-fold excess competitor.
Sym CAA/CAA 126-mer was tested, and the binding signal was 90.
For Sym CAA/CAT 126-mer, the binding signal was 90.
With Sym CAT/CAA 126-mer the binding signal was 30.
Sym CAT/CAT 126-mer gave a binding signal of 30.
